Assay results from patent US20040086503A1.

Key:
[1] = biological target: extracellular domain of IGF-IR (human) (UniProt P08069); test: SPR (BIAcore 3000), Protocol 1: antibody captured on protein A, IGF-IR ECD injected
[2] = biological target: extracellular domain of IGF-IR (human) (UniProt P08069); test: SPR (BIAcore 3000), Protocol 2, essentially as Fagerstam et al.

Kd [1] [nM]	Kd [2] [nM]	Binder
13	–	anti-IGF-IR antibody 4.17.3 (antibody, human IgG2, V domains shown) VH: PGLVKPSETLSLTCTVSGGSISSYYWSWIRQPPGKGLEWIGYIYYSGSTNYNPSLKSRVTISVDTSKNQFSLKLSSVTAADTAVYYCARTYSSSFYYYGMDVWGQGTTVTVSS VL: GDRVTITCRASQSISTFLNWYQQKPGKAPKLLIHVASSLQGGVPSRFSGSGSGTDFTLTISSLQPEDFATYYCQQSYNAPLTFGGGTKVEIK
0.641	–	anti-IGF-IR antibody 2.14.3 (antibody, human IgG2, V domains shown) VH: GPGLVKPSETLSLTCTVSGGSISNYYWSWIRQPAGKGLEWIGRIYTSGSPNYNPSLKSRVTMSVDTSKNQFSLKLNSVTAADTAVYYCAVTIFGVVIIFDYWGQGTLVTVSS VL: SSLSASVGDRVTFTCRASQDIRRDLGWYQQKPGKAPKRLIYAASRLQSGVPSRFSGSGSGTEFTLTISSLQPEDFATYYCLQHNNYPRTFGQGTEVEIIR
7.37	–	anti-IGF-IR antibody 2.12.1 (antibody, V domains shown) VH: QAQLVESGGGLVKPGGSLRLSCAASGFTFSDYYMSWIRQAPGKGLEWVSYISSSGSTRDYADSVKGRFTISRDNAKNSLYLQMNSLRAEDTAVYYCVRDGVETTFYYYYYGMDVWGQGTTVTVSS VL: DIQMTQSPSSLSASVGDRVTFTCRASQDIRRDLGWYQQKPGKAPKRLIYAASRLQSGVPSRFSGSGSGTEFTLTISSLQPEDFATYYCLQHNNYPRTFGQGTEVEIIR
3.5	1.53	anti-IGF-IR antibody 2.13.2 (antibody, V domains shown) VH: EVQLLESGGGLVQPGGSLRLSCTASGFTFSSYAMNWVRQAPGKGLEWVSAISGSGGTTFYADSVKGRFTISRDNSRTTLYLQMNSLRAEDTAVYYCAKDLGWSDSYYYYYGMDVWGQGTTVTVSS VL: DIQMTQFPSSLSASVGDRVTITCRASQGIRNDLGWYQQKPGKAPKRLIYAASRLHRGVPSRFSGSGSGTEFTLTISSLQPEDFATYYCLQHNSYPCSFGQGTKLEIKR
